Test results from patent US20200002710A1, “SYSTEMS AND METHODS FOR CONTROL OF GENE EXPRESSION” (TRUSTEES OF BOSTON UNIVERSITY, published 2020).

Assays:
[1] = molecular target: T1, 42-10 (ZF2) high affinity synTF (artificial); assay: FP; fluorescence anisotropy; Zn2+, 25 C; details: tags: N-terminal MBP; C-terminal GS linker + syntrophin ligand S5 (VKESLV)
T1 chain: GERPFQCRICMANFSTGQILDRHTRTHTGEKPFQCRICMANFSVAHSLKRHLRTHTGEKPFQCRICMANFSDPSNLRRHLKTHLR
Protocol: (§1) All assays were conducted in 20 mM Tris, pH 7.5, 100 mM […], 50 μM ZnCl2 buffer at 25° C. Proteins, probes, and competitor oligos were added to a final volume of 300 μL. Probes were used at 10 nM in all experiments. For complex assembly experiments (FIG. 1C), indicated concentrations of MBP-ZF₄₃₋₈ harboring a VSKESLV* ligand (SEQ ID NO: 120) (see e.g., FIG. 5A-FIG. 5B, FIG. 7A-FIG. 7B) were titrated against 5 μM concentrations of clamp. Mixtures were allowed to equilibrate at 25° C. for 10 min in Costar black 96-well plates prior to reading. Fluorescence anisotropy (FA) measurements were made at 494 nm using a SpectraMax M5 (Molecular Devices) fluorescence plate reader. For all measurements, anisotropy (r) was calculated using the following equation, wherein I_{∥} and I_{⊥} are parallel and perpendicular fluorescence, respectively:
(§2) TF-DBM binding constants were measured in vitro by fluorescence anisotropy (FA). Recombinant proteins were purified and DBM oligos prepared as described herein. […] Affinities for the interaction were measured as a function of the increase in fluorescence anisotropy resulting from binding of the fusion to a fluorescently labeled (FITC) oligo probe (data not shown). Oligo probe binding to ZF affinity variants was measured. MBP-ZF was titrated against 10 nM oligo probe. […] Kd values were extracted by fitting data to a quadratic binding equation (data not shown). Competition binding experiments were performed to measure binding constants for DBM affinity variants. […] Competitor oligo Kₐ values were extracted by fitting data (converted to fraction probe bound) to a cubic equation describing competitive binding (see e.g., FIG. 6). Sequences for both sets of DBM affinity variants are listed on the right of FIG. 6.

[2] = molecular target: T2, 42-10 (ZF2) low affinity synTF (artificial, R-to-A backbone (low affinity allele, already in ref)); assay: FP; fluorescence anisotropy; Zn2+, 25 C; details: tags: N-terminal MBP; C-terminal GS linker + syntrophin ligand S5 (VKESLV)
T2 chain: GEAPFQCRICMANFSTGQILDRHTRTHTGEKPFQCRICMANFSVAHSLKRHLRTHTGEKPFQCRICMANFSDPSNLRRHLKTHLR
Protocol: as §1, §2

B1: 42-10 DBM1 (dsDNA)
DNA 1: AGACGCTGCTC
DNA 2: GAGCAGCGTCT
[1]
  Kd: 2.4 nM
[2]
  Kd: 15 nM
